Data reported in patent US20200247894A1 (Regeneron, published 2020).

T1: Mouse IL2Rγ extracellular domain expressed with a C-terminal myc-myc-hexahistidine tag (mouse)
T1 construct: whole entry is the tagged construct; also called mIL-2Rg-MMH
T1 chain: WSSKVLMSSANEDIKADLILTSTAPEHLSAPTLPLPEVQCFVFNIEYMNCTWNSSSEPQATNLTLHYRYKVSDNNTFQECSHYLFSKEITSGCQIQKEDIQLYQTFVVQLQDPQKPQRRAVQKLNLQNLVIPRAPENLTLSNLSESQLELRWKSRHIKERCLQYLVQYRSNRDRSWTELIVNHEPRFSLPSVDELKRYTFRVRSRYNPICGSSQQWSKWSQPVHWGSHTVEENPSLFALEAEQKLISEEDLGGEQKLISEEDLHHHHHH

T2: Rat IL2Rγ extracellular domain expressed with a C-terminal myc-myc-hexahistidine tag (rat)
T2 construct: whole entry is the tagged construct; also called rIL-2Rg-MMH; rat IL-2Rg-MMH
T2 chain: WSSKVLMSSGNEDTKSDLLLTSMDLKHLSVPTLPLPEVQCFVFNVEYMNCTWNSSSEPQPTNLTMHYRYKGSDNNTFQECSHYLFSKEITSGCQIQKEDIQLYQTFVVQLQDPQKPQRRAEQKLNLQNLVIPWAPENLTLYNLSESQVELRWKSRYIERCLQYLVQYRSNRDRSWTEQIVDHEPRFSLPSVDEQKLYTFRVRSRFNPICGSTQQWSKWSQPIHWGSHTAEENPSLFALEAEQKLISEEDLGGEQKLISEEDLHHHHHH

T3: human IL-2Rγ endogenously expressed on NK-92 and Jurkat cells (human, UniProt P31785 23-369)
T3 construct: whole, on cells; on cells it stands with the other receptor subunits of the cell line; also called IL-2Rg; CD132
T3 sequence (looked up): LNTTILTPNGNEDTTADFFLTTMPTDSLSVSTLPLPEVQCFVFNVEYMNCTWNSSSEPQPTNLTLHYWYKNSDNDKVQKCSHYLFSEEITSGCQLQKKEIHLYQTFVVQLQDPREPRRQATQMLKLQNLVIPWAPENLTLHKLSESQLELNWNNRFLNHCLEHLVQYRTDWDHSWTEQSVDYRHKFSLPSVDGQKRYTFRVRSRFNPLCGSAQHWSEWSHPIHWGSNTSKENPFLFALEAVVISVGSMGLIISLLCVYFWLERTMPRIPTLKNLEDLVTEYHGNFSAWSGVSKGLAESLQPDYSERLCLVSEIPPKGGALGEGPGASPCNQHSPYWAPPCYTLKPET

T4: Macaca fascicularis IL2Rγ extracellular domain expressed with a C-terminal myc-myc-hexahistidine tag (Macaca fascicularis)
T4 construct: whole entry is the tagged construct; also called mfIL-2Rg-MMH
T4 chain: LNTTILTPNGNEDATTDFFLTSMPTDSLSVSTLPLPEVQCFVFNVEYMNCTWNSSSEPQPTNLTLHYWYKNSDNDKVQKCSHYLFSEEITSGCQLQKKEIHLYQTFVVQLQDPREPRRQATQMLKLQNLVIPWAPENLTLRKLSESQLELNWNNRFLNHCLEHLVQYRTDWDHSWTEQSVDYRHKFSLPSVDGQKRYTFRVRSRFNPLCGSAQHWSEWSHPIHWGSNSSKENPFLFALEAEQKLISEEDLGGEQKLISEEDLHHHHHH


Columns and labels:
[1] = molecular target: T1, Mouse IL2Rγ extracellular domain …; test: SPR Biacore 4000, anti-hFc-captured mAb, 37 C
Method: (§1) Equilibrium dissociation constants (KD values) for IL-2Rγ binding to purified anti-IL2Rγ monoclonal antibodies were determined using a Biacore 4000 instrument equipped with a real-time surface plasmon resonance biosensor. All binding studies were performed in 10 mM HEPES, 150 mM NaCl, 3 mM EDTA, and 0.05% v/v Surfactant Tween-20, pH 7.4 (HBS-ET) running buffer at 25° C. and 37° C. The Biacore sensor surface was first derivatized by amine coupling with a monoclonal mouse anti-human Fc antibody (GE, # BR-1008-39) to capture anti-IL2Rγ monoclonal antibodies.
(§2) The dissociation of monoclonal antibody bound IL2Rγ reagents were monitored for 8-10 minutes in HBS-ET running buffer. Kinetic association (kₐ) and dissociation (kd) rate constants were determined by fitting the real-time sensorgrams to a 1:1 binding model using Scrubber 2.0c curve fitting software. Binding dissociation equilibrium constants (KD) and dissociative half-lives (t_{1/2}) were calculated from the kinetic rate constants as: […]

[2] = molecular target: T2, Rat IL2Rγ extracellular domain …; test: SPR Biacore 4000, anti-hFc-captured mAb, 37 C
Method: as §1, §2

[3] = molecular target: T1, Mouse IL2Rγ extracellular domain …; test: SPR Biacore 4000, anti-hFc-captured mAb, 25 C
Method: as §1, §2

[4] = molecular target: T2, Rat IL2Rγ extracellular domain …; test: SPR Biacore 4000, anti-hFc-captured mAb, 25 C
Method: as §1, §2

[5] = molecular target: T3, human IL-2Rγ endogenously expressed on …; test: flow cytometry, 10 ug/ml antibody, NK-92 cells (endogenous human IL-2Rg)
Method: For flow cytometry analyses, the cells were pre-incubated with mouse IgG at 100 μg/ml for 15 minutes at room temperature (RT) to block the binding of the antibodies to Fc receptors. […] Cells were washed, fixed using BD CytoFix™ (BD biosciences, #554655) and analyzed on an IQue® (Intellicyt®) Flow Cytometer or Accuri Flow cytometer (BD). […] The results were analyzed using ForeCyt® (IntelliCyt®) software to determine the geometric means of fluorescence (MFI) for viable cells. Binding ratios were calculated by normalizing the MFI of the test sample by the MFI of the unstained sample.

[6] = molecular target: T4, Macaca fascicularis IL2Rγ extracellular …; test: SPR Biacore 4000, anti-hFc-captured mAb, 37 C
Method: as §1, §2

Binder	100 nM Ag Bound [1] [RU]	100 nM Ag Bound [2] [RU]	100 nM Ag Bound [3] [RU]	binding result [3]	100 nM Ag Bound [4] [RU]	binding result [4]	Binding Ratio (Sample over unstained MFIs) [5]	Raw MFI [5] [MFI]	100 nM Ag Bound [6] [RU]	Kd [6] [nM]	koff [6] [s⁻¹]	kon [6] [M⁻¹ s⁻¹]	t1/2 [6] [s]
H4H12927P2 (antibody, human IgG4 S228P, kappa, V domains shown, fully human anti-IL2Rgamma mAb, human IgG4 Fc) VH: EVQLVESGGGVVRPGGSLRLSCATSGFTFDDYGMSWVRQVPGKGLEWVSSVNRNGGTTDYADSVKGRFTISRDNAKRSLFLQMNSLRAEDTALYHCATGELFFDYWGQGTLVTVSS VL: not shown	1	1	1	no binding (tested: 100 nM)	2	no binding (tested: 100 nM)							
H4H13538P (antibody, human IgG4 S228P, kappa, V domains shown, fully human anti-IL2Rg antibody, human IgG4) VH: EVQLVESGGGLVQPGGSLGLSCAASGFTFSNYAMSWVRQAPGKGLEWVSAVSGGGGGTYYADSVKGRFTISRDNSKNTVLLQMNSLRAEDTAVYYCARGRTGGLDYWGPGTLVTVSS VL: DVVMTQSPLSLPVIFGQPASISCRSSQSLVDSDGNTYLNWLQQRPGQSPRRLIYEVSNRDSGVPDRFSGSGSGTDFTLTISRVEAEDVGIYYCMQGTRWPPTFGGGTKVEIKR							1	235					
H4H13541P (antibody, human IgG4 S228P, kappa, V domains shown, fully human anti-IL2Rg antibody, human IgG4) VH: EVQLVESGGGVVRPGGSLRLSCAASGFIFDDYDMSWVRQPPGRGLEWVSGIDWFGGTRGYADSMKGRFTISRDNAKNSLYLQMNSLRVEDTAFYYCARGGAIVGAVTPFDYWGQGTLVTVSS VL: DIQMTQSPSSLSASVGNRVTLSCRASQSINTYLSWYQQRPGKAPKLLIYAASSLQSGVPSRFSGSGAGTDFTLTISSLQPEDFATYYCQQSYSAPLTFGGGTKVEIKR							37	7050					
H4H12859P (antibody, human IgG4 S228P, kappa, V domains shown, fully human anti-IL2Rgamma mAb, human IgG4 Fc) VH: QVQLVQSGAEVKKPGASVRVSCKASGYTFTDYDIHWVRQAPGHGLEWMGWINPNSGGTNYAQKFQGRVTMTRDTSISTVYMDLSRLRSDDTAVYYCARADYSSSYYYYGMDVWGQGTTVTVSS VL: not shown	0	1	2	no binding (tested: 100 nM)	2	no binding (tested: 100 nM)			10	320	0.0201	62800	36
